This note sets out measurements from patent publication US20250018038A1 (UNIVERSITY OF CHICAGO, published 2025).

Experiment [1] deals with T1, Bor-N (Biotinylated Avi tag, held on neutravidin; not in the letters).
T1 construct: also called Bor N: 20-88; Borealin N-terminal domain; not shown: Avi tag, and any purification tag or linker
T1 chain: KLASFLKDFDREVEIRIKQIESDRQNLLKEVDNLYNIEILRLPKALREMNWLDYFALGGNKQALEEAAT
Put plainly: single point protein ELISA, 50 nM immobilised target. How it is done: (§1) To rapidly reconfirm the binding and specificity of the obtained Fabs after reformatting into the expression vectors single-point Fab ELISA was performed (FIG. 2-3). Briefly, 50 nM Avi-tagged targets were immobilized on the prepared NAV-coated and blocked with 0.5% BSA in PBS 96-well ELISA plates. The target coated plates were washed with appropriate buffer (TBST or PBST) and were incubated with 200 nM Fab for 20 minutes and then washed. The washed plates were incubated with protein L conjugated with HRP (1:5000 diluted in TBST) for 30 minutes. Plates were washed and the reaction was developed using the TMB chromogenic substrate (Thermofisher) and subsequently quenched with 1M HCl. Absorbance was read at 450 nm on Epoch plate reader.
A general note: ELISA stands for enzyme-linked immunosorbent assay.

For experiment [2], the target named is T2, Survivin (purified recombinant Survivin protein) (human, UniProt O15392 1-140, limits assumed, biotinylated on the Avi-tag by BirA (antigens for selection and ELISA)).
T2 construct: also called Baculoviral IAP repeat-containing protein 5; BIRC5
Put plainly: multipoint protein ELISA: 50 nM immobilised target, 3-fold serial dilutions of purified Fab, protein L-HRP, sigmoidal fit. How it is done:
Protein based multipoint ELISA was performed to estimate the affinity of the generated unique Fabs to their cognate antigens. A fixed concentration of the immobilized target (50 nM) on ELISA plate was incubated with 3-fold serial dilutions of the purified Fabs starting from […] for 15 min. The plates were washed and the bound antigen-Fab complexes were incubated with H1RP-conjugated protein L (1:5000 dilution in PBST). As with phage ELISA, the plates were again washed, developed with TMB substrate and quenched with 1.0 M HCl, and absorbance (A450) was determined. To determine the affinity, the data were fitted in a non-linear sigmoidal function with variable slope in GraphPad PRISM and EC50 value was calculated (FIG. 2).

Experiment [3] addresses T3, Bor-C (Biotinylated Avi tag, held on neutravidin; not in the letters).
T3 construct: also called Bor C: 207-280; Borealin C-terminal domain; not shown: Avi tag, and any purification tag or linker
T3 chain: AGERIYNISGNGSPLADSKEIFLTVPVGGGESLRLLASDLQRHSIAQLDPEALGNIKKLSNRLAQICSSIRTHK
Put plainly: single point protein ELISA, 50 nM immobilised target. How it is done: as §1

For experiment [4], the target named is T4, cell surface survivin on cancer cells (human, UniProt O15392 1-142).
T4 construct: whole, on cells
Put plainly: flow cytometry of live cells, 200 nM Fab, anti-human F(ab')2-A647 secondary. How it is done:
Human or murine tumor cells were trypsinized, washed and resuspended in Flow buffer (1×PBS supplemented with 2% FBS) and added to a 96-well plate (#3799, Costar). 200 nM primary CPC Fab was mixed with 0.5M cells and incubated at 37 C for 20 min. […] Samples were analyzed by flow cytometry using CytoFLEX (Beckman Coulter) and mean fluorescence intensity (MFI) data was extracted using the FlowJo software (FIG. 5A-E, FIG. 6). Human peripheral blood mononuclear cells (PBMCs) derived from a single patient were used as a source of healthy human cells. PBMCs were counted, split and spun down 400×g 5 min. Cells were resuspended in Flow buffer (1×PBS supplemented with 2% FBS) and pre-incubated with TruStain FcX (1:20, Biolegend 422302) for 10 min at 37 C, followed by 200 nM primary Fab incubation at 37 for 20 min. […] Mean fluorescence intensity (MFI) data was extracted using the FlowJo software (FIG. 5F).
Background: Flow cytometry measures light scatter and fluorescence of single cells or particles in a stream.

T4 sequence (O15392 whole entry): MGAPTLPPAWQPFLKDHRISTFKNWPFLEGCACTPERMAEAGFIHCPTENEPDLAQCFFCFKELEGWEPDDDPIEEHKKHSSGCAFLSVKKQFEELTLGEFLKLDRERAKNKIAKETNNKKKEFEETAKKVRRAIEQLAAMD
T2 sequence (O15392 1-140 limits assumed): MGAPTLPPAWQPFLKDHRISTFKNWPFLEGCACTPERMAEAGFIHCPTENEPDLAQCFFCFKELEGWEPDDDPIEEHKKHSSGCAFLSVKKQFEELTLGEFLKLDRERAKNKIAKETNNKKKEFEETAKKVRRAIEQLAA

B1: SUR-N-37 (Fab, V domains shown)
VH: EVQLVESGGGLVQPGGSLRLSCAASGFNVSYSSIHWVRQAPGKGLEWVASISSYYGSTSYADSVKGRFTISADTSKNTAYLQMNSLRAEDTAVYYCARSTYYSWYPYYYAMWHQHGMDYWGQGTLVTVSS
VL: DIQMTQSPSSLSASVGDRVTITCRASQSVSSAVAWYQQKPGKAPKLLIYSASSLYSGVPSRFSGSRSGTDFTLTISSLQPEDFATYYCQQSPMYSLITFGQGTKVEIKR
notes: also called SUR-N-37 Fab
As a reminder, the EC50 is the concentration needed to bring the measured effect to its halfway point. For B1, the binding result in experiment [1] is listed as “no binding (tested: 200 nM)”. Moreover, the EC50 in experiment [2] stood at 1 nM.

B2: SUR-N-45 Fab (Fab, V domains shown)
VH: EVQLVESGGGLVQPGGSLRLSCAASGFNLSSSSIHWVRQAPGKGLEWVASISSYSGYTYYADSVKGRFTISADTSKNTAYLQMNSLRAEDTAVYYCARPHWNSSYFSGWAMDYWGQGTLVTVSS
VL: DIQMTQSPSSLSASVGDRVTITCRASQSVSSAVAWYQQKPGKAPKLLIYSASSLYSGVPSRFSGSRSGTDFTLTISSLQPEDFATYYCQQWSSKSPITFGQGTKVEIKR
Turning to B2, the binding result in experiment [1] was “no binding (tested: 200 nM)”; in experiment [3], “no binding (tested: 200 nM)”; in experiment [4], “binds”.
